PMC9849103 (Nature Communications, 2023)

B1: C2606 (antibody, V domains shown)
VH: QVQLVQSGAEVKKPGSSVKVSCKASGDTFRSYAISWVRQAPGQGLEWMGRIIPMLGITTYEQKYQGRLKIIADKSTSTAYMELSSLRSEDTAVYFCARDGVGATEPYYYDYWGQGTLVTVSS
VL: QSVLTQPASVSGSPGQSIIISCTGTSSDVGKYDFVSWYQQHPGKAPKLMIYDVSKRPSGVSDRFSGSKSGNTASLTISGLQAEDEADYHCASYTSDSSYLVFGGGTKLTVL
notes: source: 293-6E cells, transfected, purified (Protein G Sepharose)
B2: C3108 (antibody, V domains shown)
VH: QVQLQESGPGLVKPSQTLSLTCTVSGGSISSGGYYWNWIRQSPVKGLEWIGYIYYSGGTYYNPSLRSRLTISLDTSNNQFSLRLNSVTAADTAIYYCARDQGAITFGTDAFEIWGQGTMVTVSS
VL: DIQMTQSPSSLSASVGDRVTITCQASQDISKYLNWYQQKPGKAPKLLIYGASTLKAGVPSRFSGSGSGTDFTFTISSLQPEDIATYYCQQYDSLPPTFGGGTKVEIK
notes: as for B1
B3: C3102 (antibody, V domains shown)
VH: QVQLVQSGAEVKKPGSSVKVSCKASGGTFRRYAISWVRQAPGQGLEWMGGIIPIAGAADYAQKFQARVTITADESTSTAYLELSSLRSEDTAVYYCAREISYCSGAPCYAGYYDYGMDVWGQGTTVTVSS
VL: QSVLTQPPSASGTPGQRVTISCSGNSSNIGSNSVNWYQQLPGTAPKLLIKSTNQRPSGVPDRFSGSKSGTSASLAISGLQSEDEADYYCAAWEDVLNAVVFGGGTMLTV
notes: as for B1
B4: C3095 (antibody, V domains shown)
VH: EVQLVETGGGLIQPGGSLRLSCAASEFIVSANYMHWVRQAPGQGLEWVSVIYAGGSTFYADSVKGRFTISRDNSKNSLYLQMNSLRAEDTAVYYCARGLGDYFDFWGQGTLVTVSS
VL: DIQMTQSPSTLSASVGDRVTITCRASQSFSDWLAWYQQKPGSAPKLLIYRASSLESGVPSRFSGSGSGTEFTLTISSLQPDDFATYYCQQYNTYPLTFGGGTKVEIK
notes: as for B1
B5: C2655 (antibody, V domains shown)
VH: QVQLVQSGAEVKKPGSSVKVSCKASGGTFNSYAISWVRQAPGQGLEWMGGIIHVLGTANYAQRFQGRVTITADESTSTVYMELSSLRSEDTAVYYCARVGAPLGRADSGYDFYYYGMDVWGQGTTVTVSS
VL: not shown
notes: as for B1
B6: B2064 (antibody, V domains shown)
VH: QVQLVQSGAEVKKPGSSVNVSCKASGGTLNIYTFSWVRQAPGQGLEWVGTIVPLVGKANYPHKFQGRVTITADKSTSTVNMELSSLRSEDTAVYYCASEVLDNLRDGYNFWGQGTLVTVSS
VL: DIQMTQSPSSLSASVGDRVTITCRASQSVSSYLNWYQQKPGKAPKLLIYAVSSLQSGVPSRFSGSGSGTDFTLTISSLQPEDFATYYCQQTYNTLTFGGGTKVEIK
notes: as for B1
B7: C3055 (antibody, V domains shown)
VH: QVQLVQSGAEVKKPGSSVNVSCRASGGTFSSKTISWVRQAPGQGLEWMGKIFPILGVANYAQKFQGRVTITADRSTNTAYMELNSLRSEDTAIYYCATEEGYSSSRSLPAEYFRQWGQGTLVTVSS
VL: QSVLTQPPSVSGAPGQRVTISCTGSNSNIGAGYDVHWYQQLPGTAPKLLIYANTNRPSGVPDRFSGSKSGTSASLAITGLQAEDEADYYCQSYDSGLSGSLFGGGTKLTVL
notes: as for B1
B8: B1034 (antibody, V domains shown)
VH: QVQLVQSGSEVKKPGASVKVSCKASGNTFITYYTHWVRQAPGQGLEWMGVIKPSDGYTNYAQKFQGRVTMTRDTSASTVYMELSSLTSDDTAVYYCARDSSIAARVVDWGQGTLVTVSS
VL: DIQMTQSPSSLSASVGDRVTITCQASQDIYNYLNWYQQKPGKAPKLLIFDAINLETGVPSRFSGSGSGTDFTLTISSLQPEDIATYYCQQHDNLPYSFGQGTKLEIK
notes: as for B1
B9: B1026 (antibody, V domains shown)
VH: QMQLVQSGPEIKKPGTSVKVSCKASGFTFSNSAVQWVRQARGQRLEWIGWIVVGSGDPNYAQKFQERVTLTRDMSTSTAYMELSSLRSEDTAVYYCATNHCSRTICSDGFDIWGQGTVVTVSS
VL: EIVLTQSPVSLSLSPGERATLSCRASQTVRSSYFVWYQQKLGQAPRLLIYSASSRAAGIPDRFSGSGSGTDFTLTISRLEPEDFAVYYCQQYGSSPWTFGQGTKVEIK
notes: as for B1

Target: WT RBD (SARS-CoV-2 Wuhan-Hu-1 spike receptor binding domain) (SARS-CoV-2 (Wuhan-Hu-1), UniProt P0DTC2)
Experiment: BLI
Conditions: both partners purified

Binder	Kd [nM]
B1	0.743
B2	0.96
B3	0.639
B4	0.00158
B5	1.34
B6	0.866
B7	0.592
B8	0.734
B9	12
